According to PMC3468530, “Structural and Enzymatic characterization of the lactonase SisLac from Sulfolobus islandicus” (PLoS ONE, 2012):

Experiments:
[1] = target: SisLac, Phosphotriesterase-Like Lactonase from Sulfolobus islandicus strain M.16.4 (Sulfolobus islandicus strain M.16.4); assay: SEC-MALS; KW803 column (Shodex), room temperature (25°C), 0.5 ml/min, activity buffer (HEPES 50 mM, NaCl 150 mM, CoCl2 0.2 mM) with pH adjusted to 7.3; static and quasi-elastic light scattering, refractometry
[2] = target: SisLac, Phosphotriesterase-Like Lactonase from Sulfolobus islandicus strain M.16.4 (Sulfolobus islandicus strain M.16.4); assay: dynamic light scattering; room temperature, 30 µL of purified protein at 2.5 mg/mL in activity buffer (HEPES 50 mM pH 8, NaCl 150 mM, CoCl2 0.2 mM), 633 nm
[3] = target: the molecule itself; assay: SEC-MALS; KW803 column (Shodex), room temperature (25°C), 0.5 ml/min, activity buffer (HEPES 50 mM, NaCl 150 mM, CoCl2 0.2 mM) with pH adjusted to 7.3; static and quasi-elastic light scattering, refractometry

Molecule	stoichiometry N [1]	stoichiometry N [2]	stoichiometry N [3]
SisLac, Phosphotriesterase-Like Lactonase from Sulfolobus islandicus strain M.16.4 (enzyme)	2	2	–
SsoPox, Phosphotriesterase-Like Lactonase from Sulfolobus solfataricus (enzyme, SsoPox, Phosphotriesterase-Like Lactonase of Sulfolobus solfataricus (strain MT4, GenBank AAW47234.1); made from the plasmid pET22b-SsoPox; Plasmid pET22b-SsoPox (GeneArt); also called wt SsoPox; source: E. coli BL21(DE3)-pGro7/GroEL, purified (70°C heat step, ammonium sulfate precipitation, size exclusion chromatography)) MRIPLVGKDSIESKDIGFTLIHEHLRVFSEAVRQQWPHLYNEDEEFRNAVNEVKRAMQFGVKTIVDPTVMGLGRDIRFMEKVVKATGINLVAGTGIYIYIDLPFYFLNRSIDEIADLFIHDIKEGIQGTLNKAGFVKIAADEPGITKDVEKVIRAAAIANKETKVPIITHSNAHNNTGLEQQRILTEEGVDPGKILIGHLGDTDNIDYIKKIADKGSFIGLDRYGLDLFLPVDKRNETTLRLIKDGYSDKIMISHDYCCTIDWGTAKPEYKPKLAPRWSITLIFEDTIPFLKRNGVNEEVIATIFKENPKKFFS	–	–	2
